Test: soluble on expression in E. coli; label from the status in PepcDB or PDB records

Sequence	soluble on expression in E. coli
MAEAPPVSGTFKFNTDAAEFIPQERKTSGLNCGTQRRLDSSRIGRRNYSSSPPCHLPRHIPYEDISAVHQHSYASGSKPKSPQGFFQSSNKSLKNHGLQNQPWQKARNEKHQNRNKKAQGLSEQTSDTSSLESVARSESGTNPREHSPSESEKEVVIADPRGAKPKKAAQLTYNYGRGPKAKGRLRSEWGNRMSPKSEDENTRPVAISHTDSSDASCRKPVVDPCVCRRNEQRRYPQKRPPWEVEGARPRPGRNPPKQESQRHINAGPKTNMSPIPKDNLRERPTKSACDTGNLAVVSKSSRRVNQEKTAVRRQDPQVLSPFPRGKQNHMLKNVETHTGSLIEQLTTEKYECMVCCELVQVTAPVWSCQSCFHVFHLNCIKKWARSPASHADGQSGWRCPACQNVSAHVPNTYTCFCGKVKNPEWSRNEIPHSCGEVCRKKQPGQDCPHSCNLLCHPGPCPPCPAFTTKTCECGRTRHTVRCGQPVSVHCSNACENILNCGQHHCAELCHGGQCQPCRIILNQVCYCGSTSRDVLCGTDVGKSDGFGDFSCLKICGKDLKCGSHTCSQVCHPQPCQPCPRLPHLVRYCPCGQTPLSQLLEHGSNARKTCMDPVPSCGKVCGKPLACGSSDFIHTCEKLCHEGDCGPCSRTSVISCRCSFRTKELPCTSLKSEDATFMCDKRCNKKRLCGRHKCNEICCVDKEHKCPLICGRKLRCGLHRCEEPCHRGNCQTCWQASFDELTCHCGASVIYPPVPCGTRPPECTQTCARIHECDHPVYHSCHSEEKCPPCTFLTQKWCMGKHEELTIKKLWTFKETLDF	soluble
MGSDKIHHHHHHMHLGVVVPRVDDHSTIELAVEAEGHGYDSVWLNELWGASSVVELTDIATRTDDIEIGSAILNVFSRSPAVLAMTATTLDRVSDGRAVLGLGTSTARSIENMHSMEFERPVRRAHETIDIIKQLMTGDERVTYDGEAVSVRGVPPLDRDVPVYHAALGPANRRVVARLADGWLPHMIAFSELESAFDYIAETARDADRDPDDITVAPYVPAVVHEDSERATEELRQHIAYYVGSGEGYRRAVAETYPDRAERIADAWQAGDRGEATELVTDEMTADLGIAGTPEQAREKRDKIADRAVIDRLLLTVPQQVDGELARKTIRALGPN	not soluble
SEKTQETVQRILLEPYKYLLQLPGKQVRTKLSQAFNHWLKVPEDKLQIIIEVTEMLHNASLLIDDIEDNSKLRRGFPVAHSIYGIPSVINSANYVYFLGLEKVLTLDHPDAVKLFTRQLLELHQGQGLDIYWRDNYTCPTEEEYKAMVLQKTGGLFGLAVGLMQLFSDYKEDLKPLLNTLGLFFQIRDDYANLHSKEYSENKSFCEDLTEGKFSFPTIHAIWSRPESTQVQNILRQRTENIDIKKYCVHYLEDVGSFEYTRNTLKELEAKAYKQIDARGGNPELVALVKHLSKMFKEENE	soluble
MIVGIGIDIIELNRIEKMLDGKLKFMERILTENERNVAKGLKGSRLTEFVAGRFAAKEAYSKAVGTGIGKEVSFLDIEVRNDDRGKPILITSTEHIVHLSISHSKEFAVAQVVLESSSS	not soluble
MIILEKEQKEPNRLIKEKSPYLLQHAYNPVDWYPWGEEAFEKARKENKPVFLSIGYSTCHWCHMMAHESFEDEEVAGLMNEAFVSIKVDREERPDIDNIYMTVCQIILGRGGWPLNIIMTPGKKPFFAGTYIPKNTRFNQIGMLELVPRIKEIWEQQHEEVLDSAEKI	not soluble
MQPTRRSYSNPFKAQVIQECSQPGASIASVALSHNLNANLVHKWIRLHAQKSPTLPPAFIPLAMPPAGANPHPASPNICVEIQHTRGTVKVSWPTENAAACATFLRDLLRLEHHHHHH	not soluble
MGSDKIHHHHHHMVKTNVTIMRGGTSKGVFFHESAMPNNKNEWEPFLLDVMGSPDKRQIDGLGGGNSLTSKVAIIKKAYTSDIDVHYTFGQVSISEEKVDFKGNCGNISAAVGPFAIEEGLVKAKEPMTAVRILNTNTNKMIIAEVEVEDGQVKYDGDVTISGVPGSGSPIYLNFHDAAGSVTGHLLPTGNSSEFLDTSQGQIEVSIIDYANPLVFVEASSIGLDGTELAEEFTDLQLAQFEELRSIAAEKCGFASRFSATKLSPAVPKLAIVAKPEKYKDSTGAWHSSVEMDLHIRMMSMQKSHQALAVTGAICTTRALSVEGAIPARIAKNHSTKVRLAHSSGIIETMVEPTGIKIVRTARRIMDGTVYTHGDYQMM	not soluble
MTADLPDEIDETPLDGEYAHDSSPTLLYAIKQVELAIRSHMDALLRPMGITALQYTALTVLRRRDGLSSAELARNSFVTAQTMGEMLSALERRGLVTRRVDPANRRRMLTSLTADALDLLAEYDTSICGLEEQMLADMSVRQRDAFRGYLGRCRIALAETPAH	not soluble
MSLQLPISQYNELLQKKLEKLTALLHPFNAPDIQVFDSPTSHYRMRAEFRIWHEQDDFYHIMFDQATLQRYRVDEFPIASMLINRMMQTLLPLLKQQEVLHKKLFQIDYLSTLSNKIIVSLLYHKTLTEEWESAAKNLKDLLEKQDFDVQIIGRASKQKICFEQDYVDEVLPVNGRNYVYRQVENSFTQPNATVNCKMLEWAIDCTQNSEGDLLELYCGNGNFSIALAQNFRKVLATEIAKPSVAAAQFNIAENKVDNLQIIRMSAEEFTQAMNGVRAFNRLKGIDLKSYECNTIFVDPPRAGLDPDTVKLVQNYDRILYISCNPHTLCDNLVELSKTHRIEKAALFDQFPYTDHMESGLWLIRKEGHHHHHH	soluble
TVSRENRAEDSRVAAKGVAFGGGETVRIAAEPSVWSNADAVFLDPFFTSANLYDTLSADEGRGRCRRLAEQAASAHGAGKPVLVRVRNVRHVEAALNAGADILYLGGGLMSDLAVLNEAGSLNIPLVLCKDKHHSAEDWLNAAEYVVSRGNRHLILGESGVLGHTKGHPYRLDVESIVKVRQISHLPVIANITGLWSRDMPQEILYGLAKAAGACGIV	not soluble
MGSSHHHHHHSSGRENLYFQGSPVEKYNFKAEVNKVMDIIVNSLYTDKDVFLRELISNASDACDKKRIILENNKLIKDAEVVTNEEIKNETEKEKTENVNESTDKKENVEEEKNDIKKLIIKIKPDKEKKTLTITDNGIGMDKSELINNLGTIAQSGTAKFLKQIEEGKADSNLIGQFGVGFYSSFLVSNRVEVYTKKEDQIYRWSSDLKGSFSVNEIKKYDQEYDDIKGSGTKIILHLKEECDEYLEDYKLKELIKKYSEFIKFPIEIWSE	soluble
MPKLYVIPTPIGNLKDITLRALEVLKEVNYIACEDTRRTMILLNHYGIKGKKLISYYEPKEEKQIPKILKVLEKEDVALVTDAGMPAISDPGYRLIRKCIEKGIEIEVLPGPSAVITALVGSGLPPDRFLFVGFPPKKGTKGFFEELKSCEDTTVILFENPNRLLKTLKIIHEVFGNVQACVARELTKLHEEYIRGNLEEIIQELESREKIKGEVVVLFRILEHHHHHH	soluble
MAHHHHHHMKKKNNNKLHYLDSKGKLYTSGLRSDTKEKYGEIPSSNKNHNLIEKYNELQSLLSKEEEKYDFVKNELGDLQKQKDLLKWHLCNNIKKLSMKRSDYKFKTETKSKLESKLKSLKDMNKIHKFEHDTLEELVHKMEQELETKMYIKNDIENIFNECINKKDEYLKDITQERISVFKERKKRQNQLQKLLLIMKQENNKNYNINYLKKYESNLMNEINSYKNYKDFETKIAMDLIDDHSLNDLYVT	not soluble
MIVRPVTSADLPALIELARSTGTGLTTLPANEQRLQHRVSWAEKAFRGEAERGDADYLFVLEDDAGKVVGISAIAGAVGLREPWYNYRVGLTVSASQELNIHREIPTLFLANDLTGNSELCSLFLHADHRSGLNGKLLSRARFLFIAEFRHLFGDKLIAEMRGMSDEEGRSPFWESLGRHFFKMEFSQADYLTGVGNKAFIAELMPKFPLYTCFLSEEARGVIGRVHPNTEPALAMLKAEGFSYQGYVDIFDAGPAIEAETDKIRAIAESQNLVLAVGTPGDDAEPYLIHNRKREDCRITAAPARAAAGTLVVDPLTAKRLRLSAGASVRAVPLSAQKRG	not soluble
MKINWTEVKEKIRPQISKPSYETWFTNTTVYLEDDILTIYCPNEFARDWLESHYKELVFNTLREMFNTTFEIQFDLCNGEPSNLKDVQKEKLSSWDEVKKALRPKIAEKTFMTWIRNTNATIKDNKVIIFCEDAFHRDLLEGEYKNIISSTVQKITDEEYQIWFEIESSATSNAQVHHVKNNQRTSGQEESKTIWNKIKDKIQLKISRPSYETWVKETTARINEDSLIIYFENEFQQEWVKKSYKDLISQIAKELTGNTYEIQFELKSNTTSNNEKSTIKDITSELGEQFKVSNNSLKYNDVDESNKRIRALEEKIMNLEKVIGTLVEKLDAVELKTQLEKLEHHHHHH	not soluble
MHHHHHHSSGRENLYFQGDLQATPGMFITSKKGHLSEMYQRVKKLGSGAYGEVLLCRDKVTHVERAIKIIRKTSVSTSSNSKLLEEVAVLKLLDHPNIMKLYDFFEDKRNYYLVMECYKGGELFDEIIHRMKFNEVDAAVIIKQVLSGVTYLHKHNIVHRDLKPENLLLESKEKDALIKIVDFGLSAVFENQKKMKERLGTAYYIAPEVLRKKYDEKCDVWSIGVILFILLAGYPPFGGQTDQEILRKVEKGKYTFDSPEWKNVSEGAKDLIKQMLQFDSQRRISAQQALEHPWIKEMCSKKESGIELPSLANAIENMRKFQNSQKLAQAALLYMASKLTSQEETKELTDIFRHIDKNGDGQLDRQELIDGYSKLSGEEVAVFDLPQIESEVDAILGAADFDRNGYIDYSEFVTVAMDRKSLLSKDKLESAFQKFDQDGNGKISVDELASVFGLDHLESKTWKEMISGIDSNNDGDVDFEEFCKMIQKLCSNNE	soluble
GHMNMSQSQEIVLQPRSIVVPGELLAEGEFQIPWSPYILKINSKYYSTVVGLFDVKDTQFEVIPLEGSFYYPKINDIVIGLVEDVEIYGWVVDIKAPYKAYLPASNLLGRSINVGEDLRRYLDVGDYVIARIENFDRSIDPVLSVKGKDLGRVSNGIVIDIMPVKVPRVIGKNKSMYETLTSKSGCSIFVANNGRIWATCPSRFSEEILIEAIRKIENESHIKGLTDRIKQFIEEKLGERNASSGETKTNS	soluble
MKNYKKYYIIPAPPEEVYLALTVPTTLLLWTGEEAVMSTEPESEFSLWGGSIEGRNIEFIEGKKIVQQWYFGDQEEPSIVTIILHPDKQDSTSAELRHTNIPDEAYEDMVEGWNGAYFGALQEFYEDEELEHHHHHH	soluble
MIKRYTCPNGVRIVLENNPTVRSVAIGVWIGTGSRHETPEINGISHFLEHMFFKGTSTKSAREIAESFDRIGGQVNAFTSKEYTCYYAKVLDEHANYALDVLADMFFHSTFDENELKKEKNVVYEEIKMYEDAPDDIVHDLLSKATYGNHSLGYPILGTEETLASFNGDSLRQYMHDYYTPDRVVISVAGNISDSFIKDVEKWFGSYEAKGKATGLEKPEFHTEKLTRKKETEQAHLCLGFKGLEVGHERIYDLIVLNNVLGGSMSSRLFQDVREDKGLAYSVYSYHSSYEDSGMLTIYGGTGANQLQQLSETIQETLATLKRDGITSKELENSKEQMKGSLMLSLESTNSKMSRNGKNELLLGKHKTLDEIINELNAVNLERVNGLARQLFTEDYALALISPSGNMPS	not soluble
MNEIIMLLRTIPTSKLIQPIMQLFIDNAILNIVQNDALLIEKATHARNHLRLWSLQGHRDIPNLEHHHHHH	not soluble
EVQLQESGPSLVKPSQTLSLTCSVTGDSVTSDFWSWIRKFPGNKLEYMGYISYSGSTYYHPSLKSRISITRDTSKNQYYLQLNSVTTEDTATYYCASWGGDVWGAGTTVTVSSAKTTAPSVYPLAPVCGDTTGSSVTLGCLVKGYFPEPVTLTWNSGSLSSGVHTFPAVLQSDLYTLSSSVTVTSSTWPSQSITCNVAHPASSTKVDKKI	soluble

From the DeepSol protein solubility set
